According to US20020160403:

Key:
[1] = molecular target: FLAG-huBUB3 protein fusion (plasmid p322-1)
[2] = molecular target: huBUB3 protein (untagged; expression plasmid p291-2, ~2.7 kb variant)
Chain of huBUB3 protein (untagged; expression plasmid p291-2, ~2.7 kb variant) (chain, as listed by the source mutant): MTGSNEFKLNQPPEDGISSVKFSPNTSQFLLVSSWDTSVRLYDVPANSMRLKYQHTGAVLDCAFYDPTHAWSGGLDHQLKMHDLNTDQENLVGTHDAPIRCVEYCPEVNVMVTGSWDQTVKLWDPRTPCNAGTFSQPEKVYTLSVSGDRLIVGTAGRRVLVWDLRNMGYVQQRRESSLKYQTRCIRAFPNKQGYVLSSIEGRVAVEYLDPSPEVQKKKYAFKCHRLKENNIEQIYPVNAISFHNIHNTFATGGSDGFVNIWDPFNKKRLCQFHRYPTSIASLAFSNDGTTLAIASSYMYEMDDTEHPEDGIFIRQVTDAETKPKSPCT

Chain of FLAG-huBUB3 protein fusion (plasmid p322-1) (chain, as listed by the source): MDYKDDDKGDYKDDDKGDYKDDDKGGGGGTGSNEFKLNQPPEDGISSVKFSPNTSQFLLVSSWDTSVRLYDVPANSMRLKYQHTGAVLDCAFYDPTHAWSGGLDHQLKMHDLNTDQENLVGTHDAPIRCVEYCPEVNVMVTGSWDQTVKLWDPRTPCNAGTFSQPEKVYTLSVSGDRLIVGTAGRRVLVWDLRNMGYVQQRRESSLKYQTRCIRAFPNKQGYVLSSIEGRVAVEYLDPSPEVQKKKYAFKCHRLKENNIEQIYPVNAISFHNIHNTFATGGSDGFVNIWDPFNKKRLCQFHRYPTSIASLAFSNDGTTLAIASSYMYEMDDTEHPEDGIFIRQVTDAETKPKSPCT

Row | Protein | in vitro kinase activity towards test proteins (PHAS-I) | phosphorylation in kinase reactions [1] | huBUB1 auto-phosphorylation [2] | phosphorylation in kinase reactions [2]
1 | huBUB1 protein (plasmid p337-50) (protein) MDTPENVLQMLEAHMQSYKGNDPLGEWERYIQWVEENFPENKEYLITLLEHLMKEFLDKKKYHNDPRFISYCLKFAEYNSDLHQFFEFLYNHGIGTLSSPLYIAWAGHLEAQGELQHASAVLQRGIQNQAEPREFLQQQYRLFQTRLTETHLPAQARTSEPLHNVQVLNQMITSKSNPGNNMACISKNQGSELSGVISSACDKESNMERRVITISKSEYSVHSSLASKVDVEQVVMYCKEKLIRGESEFSFEELRAQKYNQRRKHEQWVNEDRHYMKRKEANAFEEQLLKQKMDELHKKLHQVVETSHEDLPASQERSEVNPARMGPSVGSQQELRAPCLPVTYQQTPVNMEKNPREAPPVVPPLANAISAALVSPATSQSIAPPVPLKAQTVTDSMFAVASKDAGCVNKSTHEFKPQSGAEIKEGCETHKVANTSSFHTTPNTSLGMVQATPSKVQPSPTVHTKEALGFIMNMFQAPTLPDISDDKDEWQSLDQNEDAFEAQFQKNVRSSGAWGVNKIISSLSSAFHVFEDGNKENYGLPQPKNKPTGARTFGERSVSRLPSKPKEEVPHAEEFLDDSTVWGIRCNKTLAPSPKSPGDFTSAAQLASTPFHKLPVESVHILEDKENVVAKQCTQATLDSCEENMVVPSRDGKFSPIQEKSPKQALSSHMYSASLLRLSQPAAGGVLTCEAELGVEACRLTDTDAAIAEDPPDAIAGLQAEWMQMSSLGTVDAPNFIVGNPWDDKLIFKLLSGLSKPVSSYPNTFEWQCKLPAIKPKTEFQLGSKLVYVHHLLGEGAFAQVYEATQGDLNDAKNKQKFVLKVQKPANPWEFYIGTQLMERLKPSMQHMFMKFYSAHLFQNGSVLVGELYSYGTLLNAINLYKNTPEKVMPQGLVISFAMRMLYMIEQVHDCEIIHGDIKPDNFILGNGFLEQDDEDDLSAGLALIDLGQSIDMKLFPKGTIFTAKCETSGFQCVEMLSNKPWNYQIDYFGVAATVYCMLFGTYMKVKNEGGECKPEGLFRRLPHLDMWNEFFHVMLNIPDCHHLPSLDLLRQKLKKVFQQHYTNKIRALRNRLIVLLLECKRSRK | identified PHAS-I as an in vitro substrate of the huBUB1 kinase | – | – | –
2 | HA-huBUB1 (protein) MDTPENVLQMLEAHMQSYKGNDPLGEWERYIQWVEENFPENKEYLITLLEHLMKEFLDKKKYHNDPRFISYCLKFAEYNSDLHQFFEFLYNHGIGTLSSPLYIAWAGHLEAQGELQHASAVLQRGIQNQAEPREFLQQQYRLFQTRLTETHLPAQARTSEPLHNVQVLNQMITSKSNPGNNMACISKNQGSELSGVISSACDKESNMERRVITISKSEYSVHSSLASKVDVEQVVMYCKEKLIRGESEFSFEELRAQKYNQRRKHEQWVNEDRHYMKRKEANAFEEQLLKQKMDELHKKLHQVVETSHEDLPASQERSEVNPARMGPSVGSQQELRAPCLPVTYQQTPVNMEKNPREAPPVVPPLANAISAALVSPATSQSIAPPVPLKAQTVTDSMFAVASKDAGCVNKSTHEFKPQSGAEIKEGCETHKVANTSSFHTTPNTSLGMVQATPSKVQPSPTVHTKEALGFIMNMFQAPTLPDISDDKDEWQSLDQNEDAFEAQFQKNVRSSGAWGVNKIISSLSSAFHVFEDGNKENYGLPQPKNKPTGARTFGERSVSRLPSKPKEEVPHAEEFLDDSTVWGIRCNKTLAPSPKSPGDFTSAAQLASTPFHKLPVESVHILEDKENVVAKQCTQATLDSCEENMVVPSRDGKFSPIQEKSPKQALSSHMYSASLLRLSQPAAGGVLTCEAELGVEACRLTDTDAAIAEDPPDAIAGLQAEWMQMSSLGTVDAPNFIVGNPWDDKLIFKLLSGLSKPVSSYPNTFEWQCKLPAIKPKTEFQLGSKLVYVHHLLGEGAFAQVYEATQGDLNDAKNKQKFVLKVQKPANPWEFYIGTQLMERLKPSMQHMFMKFYSAHLFQNGSVLVGELYSYGTLLNAINLYKNTPEKVMPQGLVISFAMRMLYMIEQVHDCEIIHGDIKPDNFILGNGFLEQDDEDDLSAGLALIDLGQSIDMKLFPKGTIFTAKCETSGFQCVEMLSNKPWNYQIDYFGVAATVYCMLFGTYMKVKNEGGECKPEGLFRRLPHLDMWNEFFHVMLNIPDCHHLPSLDLLRQKLKKVFQQHYTNKIRALRNRLIVLLLECKRSRK | – | only HA-huBUB1 auto-phosphorylation was observed in kinase reactions containing these proteins | did not reproducibly stimulate or inhibit huBUB1 auto-phosphorylation | only HA-huBUB1 auto-phosphorylation was observed in kinase reactions containing these proteins
